# Source: patent CN117736312A (SHANGHAI BOVAX BIOLOGICAL SCIENCE & TECH CO LTD, dated 2024)
# T1: HPV16L1 (human papillomavirus type 16, UniProt P03101 1-505)
# T1 sequence: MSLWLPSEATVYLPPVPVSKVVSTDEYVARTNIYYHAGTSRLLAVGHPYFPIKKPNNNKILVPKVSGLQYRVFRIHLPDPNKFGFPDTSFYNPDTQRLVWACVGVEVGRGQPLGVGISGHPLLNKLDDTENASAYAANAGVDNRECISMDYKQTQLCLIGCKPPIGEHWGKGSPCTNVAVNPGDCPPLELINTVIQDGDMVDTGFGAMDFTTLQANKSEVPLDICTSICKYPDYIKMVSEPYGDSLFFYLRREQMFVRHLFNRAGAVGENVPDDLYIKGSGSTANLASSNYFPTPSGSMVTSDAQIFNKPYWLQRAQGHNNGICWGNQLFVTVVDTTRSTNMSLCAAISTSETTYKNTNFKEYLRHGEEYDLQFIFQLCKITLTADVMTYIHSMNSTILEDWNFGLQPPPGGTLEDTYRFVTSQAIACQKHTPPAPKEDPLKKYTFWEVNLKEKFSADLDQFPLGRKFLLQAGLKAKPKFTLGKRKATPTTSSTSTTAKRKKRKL
# T2: HPV18L1 (human papillomavirus type 18, UniProt P06794 62-568)
# T2 sequence: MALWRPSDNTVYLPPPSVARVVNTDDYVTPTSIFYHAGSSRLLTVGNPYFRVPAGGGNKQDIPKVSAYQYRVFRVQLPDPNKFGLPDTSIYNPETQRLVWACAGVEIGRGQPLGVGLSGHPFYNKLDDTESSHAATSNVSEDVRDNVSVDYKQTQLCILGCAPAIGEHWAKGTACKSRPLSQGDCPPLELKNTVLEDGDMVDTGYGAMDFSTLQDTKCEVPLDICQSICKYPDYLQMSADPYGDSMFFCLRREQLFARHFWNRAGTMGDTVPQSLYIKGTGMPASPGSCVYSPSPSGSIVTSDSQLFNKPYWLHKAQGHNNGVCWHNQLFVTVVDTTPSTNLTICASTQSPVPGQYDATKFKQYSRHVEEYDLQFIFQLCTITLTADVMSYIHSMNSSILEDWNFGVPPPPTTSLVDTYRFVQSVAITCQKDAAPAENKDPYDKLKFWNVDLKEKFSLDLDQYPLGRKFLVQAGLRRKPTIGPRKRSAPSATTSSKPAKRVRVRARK
# T3: HPV45L1 (human papillomavirus type 45, UniProt P36741 30-539)
# T3 sequence: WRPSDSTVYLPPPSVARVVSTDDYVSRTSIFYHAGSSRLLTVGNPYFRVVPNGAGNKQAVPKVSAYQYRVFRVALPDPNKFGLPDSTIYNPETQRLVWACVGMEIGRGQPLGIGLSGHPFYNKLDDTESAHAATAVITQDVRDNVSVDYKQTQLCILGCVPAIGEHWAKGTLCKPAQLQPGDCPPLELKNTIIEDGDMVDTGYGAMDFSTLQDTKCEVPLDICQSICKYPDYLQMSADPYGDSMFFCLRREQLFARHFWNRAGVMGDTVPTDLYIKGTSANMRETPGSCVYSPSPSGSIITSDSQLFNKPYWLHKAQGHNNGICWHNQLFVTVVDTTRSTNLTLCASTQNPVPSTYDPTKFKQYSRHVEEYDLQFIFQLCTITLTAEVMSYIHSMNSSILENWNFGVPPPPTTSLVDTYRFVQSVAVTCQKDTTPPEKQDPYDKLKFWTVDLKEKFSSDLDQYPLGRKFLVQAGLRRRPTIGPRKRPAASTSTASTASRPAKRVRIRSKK
# T4: HPV51L1 (human papillomavirus type 51, UniProt P26536 1-504)
# T4 sequence: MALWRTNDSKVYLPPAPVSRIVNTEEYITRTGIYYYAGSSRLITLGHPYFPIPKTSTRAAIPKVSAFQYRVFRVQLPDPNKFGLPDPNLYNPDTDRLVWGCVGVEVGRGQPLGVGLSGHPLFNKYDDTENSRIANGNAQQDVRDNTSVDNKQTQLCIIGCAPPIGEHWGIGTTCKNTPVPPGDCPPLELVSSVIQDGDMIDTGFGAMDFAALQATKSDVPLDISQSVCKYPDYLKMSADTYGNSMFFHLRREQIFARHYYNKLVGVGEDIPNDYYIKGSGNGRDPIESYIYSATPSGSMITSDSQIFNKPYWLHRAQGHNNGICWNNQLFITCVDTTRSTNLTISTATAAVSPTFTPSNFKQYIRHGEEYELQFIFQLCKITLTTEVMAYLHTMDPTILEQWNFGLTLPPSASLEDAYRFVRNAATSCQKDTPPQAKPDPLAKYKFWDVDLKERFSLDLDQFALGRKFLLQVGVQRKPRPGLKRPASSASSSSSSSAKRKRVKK
# T5: HPV35L1 (human papillomavirus type 35, UniProt P27232 1-502)
# T5 sequence: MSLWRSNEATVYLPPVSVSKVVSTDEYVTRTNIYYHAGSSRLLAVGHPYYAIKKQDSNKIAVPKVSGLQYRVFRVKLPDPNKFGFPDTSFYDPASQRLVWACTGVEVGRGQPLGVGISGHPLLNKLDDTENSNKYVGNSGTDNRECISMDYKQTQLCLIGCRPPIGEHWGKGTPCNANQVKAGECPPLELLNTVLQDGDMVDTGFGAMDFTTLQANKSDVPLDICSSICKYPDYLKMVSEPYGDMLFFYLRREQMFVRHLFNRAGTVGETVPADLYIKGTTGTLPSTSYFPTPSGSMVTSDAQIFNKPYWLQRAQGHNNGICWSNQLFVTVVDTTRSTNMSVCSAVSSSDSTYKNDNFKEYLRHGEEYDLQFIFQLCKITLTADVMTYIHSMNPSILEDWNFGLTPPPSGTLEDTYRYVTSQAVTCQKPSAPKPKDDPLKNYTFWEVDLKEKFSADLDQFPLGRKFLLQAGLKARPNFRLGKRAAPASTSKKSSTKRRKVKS
# B1: HPV 59编号为30单克隆抗体 (antibody, V domains shown)
# VH: QIQLVQSGPELKKPGETVKISCKASGYTFTDYSMHWVKQAPGKGLKWMGWINTETGEPTYADDFKGRFAFSLETSASTAYLQINNLKIEDTATYFCTRDGYVWYFDVWGAGTTVTVSS
# VL: QIVLSQSPAILSASPGEKVTMTCRASSSVNYMHWYQQKPGSSPKPWIYATSNLASGVPARFSGSGSGTSYSLTISRVEAEDAATYYCQQWSSNPIFTFGSGTKLEIK
# notes: Mouse hybridoma antibody tested as cell supernatant; also called 59H30
# How the values were obtained:
# Experiment in all cases: sandwich ELISA (rabbit anti-L1 capture)
# [1] = molecular target: T1, HPV16L1
# [2] = molecular target: T2, HPV18L1
# [3] = molecular target: T3, HPV45L1
# [4] = molecular target: T4, HPV51L1
# [5] = molecular target: T5, HPV35L1
binder,measurement,setting,value
B1,binding result,[1],no binding (tested: 原液40μg/ml; 细胞上清1:100)
same,binding result,[2],no binding (tested: 原液40μg/ml; 细胞上清1:100)
same,binding result,[3],no binding (tested: 原液40μg/ml; 细胞上清1:100)
same,binding result,[4],no binding (tested: 原液40μg/ml; 细胞上清1:100)
same,binding result,[5],no binding (tested: 原液40μg/ml; 细胞上清1:100)
